# From paper PMC3564036
# B1: PPIP5K2 (Homo sapiens) (protein)
# chain: MSEAPRFFVGPEDTEINPGNYRHFFHHADEDDEEEDDSPPERQIVVGICSMAKKSKSKPMKEILERISLFKYITVVVFEEEVILNEPVENWPLCDCLISFHSKGFPLDKAVAYAKLRNPFVINDLNMQYLIQDRREVYSILQAEGILLPRYAILNRDPNNPKECNLIEGEDHVEVNGEVFQKPFVEKPVSAEDHNVYIYYPTSAGGGSQRLFRKIGSRSSVYSPESNVRKTGSYIYEEFMPTDGTDVKVYTVGPDYAHAEARKSPALDGKVERDSEGKEVRYPVILNAREKLIAWKVCLAFKQTVCGFDLLRANGQSYVCDVNGFSFVKNSMKYYDDCAKILGNIVMRELAPQFHIPWSIPLEAED
# Substrate: Nc1ncnc2c1ncn2[C@@H]1O[C@H](COP(=O)(O)OP(=O)(O)O)[C@@H](O)[C@H]1O
# Test: purified protein
# Assay type: biochemical, Homo sapiens
# Details: Mg2+
protein,measurement,value
B1,Km,5.2 ± 1.5 µM
same,kcat,0.002 s⁻¹
same,kcat/Km,370 M⁻¹ s⁻¹
